These results are taken from paper PMC11363339, “Structural Basis for Methine Excision by a Heme Oxygenase-like Enzyme” (ACS Central Science, 2024).

The data set concerns the molecule itself. As to the kind of experiment: SEC-MALS; size exclusion chromatography coupled with multiangle light scattering on FlcD without a His6-tag. A general note: Size exclusion chromatography separates by hydrodynamic size, large species first.

B1: FlcD without a His6-tag (FlcD_(tagless)) (enzyme, Pseudomonas aeruginosa)
chain: MNTRNFSLPQLQNLPIEEARIVADALAVHATSRQIDSAASKLAALAEAGLKGDRQAYAAYQQLLYVLSLSDDVATAQTRRWLARAIYRVEERFMPAADLSRALSEEDFQKRLEQEIAAQSRERHPMSQYVFSGSASRAQLQVFLRHQWFRTFRLYRDAADLLVNLTDVDEAAALARYLYGELGEEDEKGSHPRLLAKLLEAIGLEADFQAVSTMPEEIAYLNNRARAFRHAEVGWGLAVFYITELVVPGNHEKLYRALLQAGLSEDQAEYYKVHISLVPPRAKREWQLIARRIPDVQFQNAFLTSLSQHFRVERAYYDAIWEEMQSVK
notes: FlcD, heme oxygenase-like domain-containing oxidase (HDO) of Pseudomonas aeruginosa, without a His6-tag; see the Supporting Information PDF
The term stoichiometry N denotes a count of units in the complex or per binding partner. Take B1: the “stoichiometry N” value was found to be 2.
